Reference: the RNAGym collection of RNA variant scans (doi:10.1021/acssynbio.7b00057)

B1: Pistol ribozyme (parent)
chain: GGGUCGUUGUUCCAUAAUCGCGUGGAUAUGGCACGCAAGUUUCUACCGGGCACCGUAAAUGUCCGACUGGAGCCGUUCGGGCGGCUAUAAACAGACCUCAGGCCCGAAGCGUGGCGGCACCUGCCGCCGGUGGUAAAAAAGAUCGGAAGAGCACACGUCU

Variants of: B1
Assay: aptazyme ON/OFF ratio, guanine; higher = stronger switching; co-transcriptional cleavage with and without guanine

| Variant | aptazyme ON/OFF ratio |
| --- | --- |
| G9A U10A U11G C12U | 1.42 |
| G9A U10A U11G C12A | 1.02 |
| G9A U10A U11G C12G | 1.16 |
| G9A U10A U11G C12U C13G | 1.28 |
| G9A U10A U11G C12U C13A | 1.34 |
| G9A U10A U11G C12U C13U | 1.22 |
| G9A U10A U11C C13U | 1.01 |
| G9A U10A U11C C13A | 1.13 |
| G9A U10A U11C C13G | 1.09 |
| G9A C12G C13A | 1.3 |
| G9A C12G C13U | 1.44 |
| G9A C12G C13G | 1.46 |
| G9A U10G U11A C12G C13G | 1.45 |
| G9A U10G U11A C12G C13A | 1.02 |
| G9A U10G U11A C12G C13U | 1.53 |
| G9A U10A U11A C12U C13G | 1.3 |
| G9A U10A U11A C12U C13A | 1.3 |
| G9A U10A U11A C12U C13U | 1.57 |
| U8G U10C U11G C12A C13A | 1.16 |
| U8G U10C U11G C12A C13U | 1.2 |
| U8G U10C U11G C12A C13G | 1.13 |

| Variant | aptazyme ON/OFF ratio |
| --- | --- |
| G9A U10C U11C C12G | 1.18 |
| G9A U10C U11C C12A | 1.1 |
| G9A U10C U11C C12U | 1.06 |
| G9A U10G U11A C12U C13U | 1.24 |
| G9A U10G U11A C12U C13A | 1.21 |
| G9A U10G U11A C12U C13G | 1.2 |
| U8G U10C U11C C12A C13U | 1.05 |
| U8G U10C U11C C12A C13G | 1.11 |
| U8G U10C U11C C12A C13A | 1.1 |
| G9A U10A U11C C12A C13U | 1.41 |
| G9A U10A U11C C12A C13G | 1.23 |
| G9A U10A U11C C12A C13A | 1.38 |
| G9A U10G C12U | 1.82 |
| G9A U10G C12G | 1.24 |
| G9A U10G C12A | 1.53 |
| G9A U10A U11G C12G C13U | 1.25 |
| G9A U10A U11G C12G C13G | 1.2 |
| G9A U10A U11G C12G C13A | 1.42 |
| U8G U10G U11C C12A C13G | 1.08 |
| U8G U10G U11C C12A C13U | 1.09 |
| U8G U10G U11C C12A C13A | 1.06 |

| Variant | aptazyme ON/OFF ratio |
| --- | --- |
| G9A U10G C12A C13A | 1.29 |
| G9A U10G C12A C13G | 1.14 |
| G9A U10G C12A C13U | 1.69 |
| U8G U10G U11A C12A C13A | 1.18 |
| U8G U10G U11A C12A C13G | 1.14 |
| U8G U10G U11A C12A C13U | 1.3 |
| U8G U10G U11A C12U C13G | 1.22 |
| U8G U10G U11A C12U C13A | 1.14 |
| U8G U10G U11A C12U C13U | 1.26 |
| U8G U11A C12A | 1.45 |
| U8G U11A C12U | 1.46 |
| U8G U11A C12G | 1.1 |
| U8G U10C U11A C13U | 1.22 |
| U8G U10C U11A C13G | 1.05 |
| U8G U10C U11A C13A | 1.15 |
| U8G U10C U11C C12G C13G | 1.09 |
| U8G U10C U11C C12G C13A | 1.1 |
| U8G U10C U11C C12G C13U | 1.15 |
| G9A U10A U11C C12U C13G | 1.36 |
| G9A U10A U11C C12U C13A | 1.34 |
| G9A U10A U11C C12U C13U | 1.26 |

| Variant | aptazyme ON/OFF ratio |
| --- | --- |
| U8G U11C C12A C13A | 1.23 |
| U8G U11C C12A C13G | 1.23 |
| U8G U11C C12A C13U | 1.14 |
| U8G U10G | 1.32 |
| U8G U11C C12U C13U | 1.3 |
| U8G U11C C12U C13A | 1.33 |
| U8G U11C C12U C13G | 1.29 |
| U8G U10G U11C C12G C13G | 1.1 |
| U8G U10G U11C C12G C13A | 1.11 |
| U8G U10G U11C C12G C13U | 1.13 |
| U8G U10C U11G C13U | 1.05 |
| U8G U10C U11G C13G | 1.07 |
| U8G U10C U11G C13A | 1.07 |
| U8G U10C U11G C12U C13G | 1.15 |
| U8G U10C U11G C12U C13U | 1.13 |
| U8G U10C U11G C12U C13A | 1.14 |
| G9A C12U C13A | 1.46 |
| G9A C12U C13G | 1.62 |
| G9A C12U C13U | 1.32 |
| G9A U10C U11C C13A | 1.02 |
